Values quoted from earlier work, collected in article PMC7669891.

Key:
14-3-3σ (Homo sapiens) [1] = biological target: 14-3-3σ (Homo sapiens) (UniProt P31947); experiment: ITC
14-3-3ε (Homo sapiens) = 14-3-3ε (Homo sapiens) (UniProt P62258); experiment: FP
14-3-3τ (Homo sapiens) = 14-3-3τ (Homo sapiens) (UniProt P27348); experiment: FP
14-3-3γ (Homo sapiens) = 14-3-3γ (Homo sapiens) (UniProt P61981); experiment: FP
14-3-3σ (Homo sapiens) [2] = biological target: 14-3-3σ (Homo sapiens) (UniProt P31947); experiment: FP
p53 CTD (Homo sapiens) [3] = biological target: p53 CTD (Homo sapiens) (UniProt P04637); experiment: FP
p53 CTD (Homo sapiens) [4] = biological target: p53 CTD (Homo sapiens) (UniProt P04637); experiment: FP; remark: listed apart in the source
p53 CTD (Homo sapiens) [5] = biological target: p53 CTD (Homo sapiens) (UniProt P04637); experiment: FP; remark: listed apart in the source
p53 CTD (Homo sapiens) [6] = biological target: p53 CTD (Homo sapiens) (UniProt P04637); experiment: FP; remark: listed apart in the source
p53 CTD (Homo sapiens) [7] = biological target: p53 CTD (Homo sapiens) (UniProt P04637); experiment: FP; remark: listed apart in the source
p53 CTD (Homo sapiens) [8] = biological target: p53 CTD (Homo sapiens) (UniProt P04637); experiment: FP; remark: listed apart in the source
p53 CTD (Homo sapiens) [9] = biological target: p53 CTD (Homo sapiens) (UniProt P04637); experiment: FP; remark: listed apart in the source
p53 CTD (Homo sapiens) [10] = biological target: p53 CTD (Homo sapiens) (UniProt P04637); experiment: ITC
p53 CTD (Homo sapiens) [11] = biological target: p53 CTD (Homo sapiens) (UniProt P04637); experiment: FP; remark: listed apart in the source
p53 CTD (Homo sapiens) [12] = biological target: p53 CTD (Homo sapiens) (UniProt P04637); experiment: FP; remark: listed apart in the source
p53 CTD (Homo sapiens) [13] = biological target: p53 CTD (Homo sapiens) (UniProt P04637); experiment: FP; remark: listed apart in the source
p53 CTD (Homo sapiens) [14] = biological target: p53 CTD (Homo sapiens) (UniProt P04637); experiment: FP; remark: listed apart in the source
p53 CTD (Homo sapiens) [15] = biological target: p53 CTD (Homo sapiens) (UniProt P04637); experiment: FP; remark: listed apart in the source
p53 CTD (Homo sapiens) [16] = biological target: p53 CTD (Homo sapiens) (UniProt P04637); experiment: FP; remark: listed apart in the source
p53 CTD (Homo sapiens) [17] = biological target: p53 CTD (Homo sapiens) (UniProt P04637); experiment: FP; remark: listed apart in the source
p53 CTD (Homo sapiens) [18] = biological target: p53 CTD (Homo sapiens) (UniProt P04637); experiment: FP; remark: listed apart in the source
p53 CTD (Homo sapiens) [19] = biological target: p53 CTD (Homo sapiens) (UniProt P04637); experiment: FP; remark: listed apart in the source
p53 CTD (Homo sapiens) [20] = biological target: p53 CTD (Homo sapiens) (UniProt P04637); experiment: FP; remark: listed apart in the source
p53 CTD (Homo sapiens) [21] = biological target: p53 CTD (Homo sapiens) (UniProt P04637); experiment: FP; remark: listed apart in the source
p53 CTD (Homo sapiens) [22] = biological target: p53 CTD (Homo sapiens) (UniProt P04637); experiment: FP; remark: listed apart in the source
p53 CTD (Homo sapiens) [23] = biological target: p53 CTD (Homo sapiens) (UniProt P04637); experiment: FP; remark: listed apart in the source
p53 CTD (Homo sapiens) [24] = biological target: p53 CTD (Homo sapiens) (UniProt P04637); experiment: FP; remark: listed apart in the source

Sequence of 14-3-3γ (P61981 2-247): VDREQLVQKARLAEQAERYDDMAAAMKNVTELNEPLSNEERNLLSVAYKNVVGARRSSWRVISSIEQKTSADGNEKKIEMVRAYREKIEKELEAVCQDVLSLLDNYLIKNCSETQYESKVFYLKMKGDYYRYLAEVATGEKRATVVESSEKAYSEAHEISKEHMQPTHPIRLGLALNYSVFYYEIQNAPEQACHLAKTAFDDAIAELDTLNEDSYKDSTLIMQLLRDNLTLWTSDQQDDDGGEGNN
Sequence of 14-3-3γ (Homo sapiens) (P61981 2-247): as above
Sequence of 14-3-3σ (Homo sapiens) (P31947 whole entry): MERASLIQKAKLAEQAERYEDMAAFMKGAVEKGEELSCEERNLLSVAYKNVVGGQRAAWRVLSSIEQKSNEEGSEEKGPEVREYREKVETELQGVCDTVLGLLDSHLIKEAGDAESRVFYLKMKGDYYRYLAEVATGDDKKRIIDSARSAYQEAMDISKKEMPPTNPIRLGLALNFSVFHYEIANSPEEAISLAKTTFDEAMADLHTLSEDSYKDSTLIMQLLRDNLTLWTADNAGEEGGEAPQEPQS
Sequence of 14-3-3σ (P31947 whole entry): as above
Sequence of p53 CTD (Homo sapiens) (P04637 363-393): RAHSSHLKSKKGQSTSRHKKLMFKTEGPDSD
Sequence of p53 CTD pS378/pT387 peptide (P04637 361-393): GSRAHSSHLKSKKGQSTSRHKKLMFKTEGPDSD
Sequence of p53 CTD pT387 peptide (P04637 361-393): as above
Sequence of p53 CTD pS378 peptide (P04637 361-393): as above
Sequence of p53 CTD pS366/pS378 peptide (P04637 361-393): as above
Sequence of p53 CTD pS366/pT387 peptide (P04637 361-393): as above
Sequence of p53 CTD pS366 peptide (P04637 361-393): as above
Sequence of 14-3-3ε (Homo sapiens) (P62258 whole entry): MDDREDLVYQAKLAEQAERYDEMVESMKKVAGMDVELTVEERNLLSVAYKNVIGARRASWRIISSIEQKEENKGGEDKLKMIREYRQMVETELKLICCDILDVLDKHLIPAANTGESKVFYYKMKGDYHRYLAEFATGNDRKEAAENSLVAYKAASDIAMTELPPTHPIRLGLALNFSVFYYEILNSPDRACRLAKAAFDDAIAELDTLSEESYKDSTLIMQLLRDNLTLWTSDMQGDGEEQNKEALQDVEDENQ
Sequence of 14-3-3ε (P62258 whole entry): as above
Sequence of 14-3-3τ (P27348 whole entry): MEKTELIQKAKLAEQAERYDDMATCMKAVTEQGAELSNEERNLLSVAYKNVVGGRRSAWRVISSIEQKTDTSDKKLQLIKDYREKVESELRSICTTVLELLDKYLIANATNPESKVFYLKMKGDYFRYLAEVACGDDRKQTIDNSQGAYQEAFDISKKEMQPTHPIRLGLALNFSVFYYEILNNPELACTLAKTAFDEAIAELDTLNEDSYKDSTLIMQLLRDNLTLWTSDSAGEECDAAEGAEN
Sequence of 14-3-3τ (Homo sapiens) (P27348 whole entry): as above

Substance	Kd (14-3-3ε (Homo sapiens))	Kd (14-3-3τ (Homo sapiens))	Kd (14-3-3γ (Homo sapiens))	Kd (14-3-3σ (Homo sapiens) [2])	Kd (p53 CTD (Homo sapiens) [8])	further results
p53 pT387 peptide (from UniProt P04637)						Kd (14-3-3σ (Homo sapiens) [1]): 16.3 µM
p53 CTD pT387 peptide (from UniProt P04637)	11 µM	24 µM	14 µM	23 µM		
p53 CTD pS366 peptide (from UniProt P04637)	16 µM	28 µM	17 µM	24 µM		
14-3-3γ (from UniProt P61981)					0.45 µM	Kd (p53 CTD (Homo sapiens) [3]): 0.14 µM; Kd (p53 CTD (Homo sapiens) [4]): 20 µM; Kd (p53 CTD (Homo sapiens) [5]): 17 µM; Kd (p53 CTD (Homo sapiens) [6]): 0.48 µM; Kd (p53 CTD (Homo sapiens) [7]): 14 µM
p53 CTD pS378/pT387 peptide (from UniProt P04637)	0.8 µM	3.3 µM	0.45 µM	7.3 µM		
14-3-3τ (from UniProt P27348)					6.2 µM	Kd (p53 CTD (Homo sapiens) [15]): 28 µM; Kd (p53 CTD (Homo sapiens) [16]): 3.3 µM; Kd (p53 CTD (Homo sapiens) [17]): 2.1 µM; Kd (p53 CTD (Homo sapiens) [18]): 27 µM; Kd (p53 CTD (Homo sapiens) [19]): 24 µM

Continued, in another order:

Kd (14-3-3ε (Homo sapiens))	Kd (14-3-3τ (Homo sapiens))	Kd (14-3-3γ (Homo sapiens))	Kd (14-3-3σ (Homo sapiens) [2])	Kd (p53 CTD (Homo sapiens) [8])	Substance	further results
18 µM	27 µM	20 µM	22 µM		p53 CTD pS378 peptide (from UniProt P04637)	
0.51 µM	2.1 µM	0.48 µM	2.2 µM		p53 CTD pS366/pS378 peptide (from UniProt P04637)	
				23 µM	14-3-3σ (from UniProt P31947)	Kd (p53 CTD (Homo sapiens) [9]): 3.5 µM; Kd (p53 CTD (Homo sapiens) [10]): 16.3 µM; Kd (p53 CTD (Homo sapiens) [11]): 7.3 µM; Kd (p53 CTD (Homo sapiens) [12]): 24 µM; Kd (p53 CTD (Homo sapiens) [13]): 22 µM; Kd (p53 CTD (Homo sapiens) [14]): 2.2 µM
				16 µM	14-3-3ε (from UniProt P62258)	Kd (p53 CTD (Homo sapiens) [20]): 11 µM; Kd (p53 CTD (Homo sapiens) [21]): 0.18 µM; Kd (p53 CTD (Homo sapiens) [22]): 0.51 µM; Kd (p53 CTD (Homo sapiens) [23]): 18 µM; Kd (p53 CTD (Homo sapiens) [24]): 0.8 µM
0.18 µM	6.2 µM	0.14 µM	3.5 µM		p53 CTD pS366/pT387 peptide (from UniProt P04637)	
